The target of this data set is RAP-2 (RIP-associated protein-2), full-length.
Chain of RAP-2 (RIP-associated protein-2), full-length (chain, as listed by the source): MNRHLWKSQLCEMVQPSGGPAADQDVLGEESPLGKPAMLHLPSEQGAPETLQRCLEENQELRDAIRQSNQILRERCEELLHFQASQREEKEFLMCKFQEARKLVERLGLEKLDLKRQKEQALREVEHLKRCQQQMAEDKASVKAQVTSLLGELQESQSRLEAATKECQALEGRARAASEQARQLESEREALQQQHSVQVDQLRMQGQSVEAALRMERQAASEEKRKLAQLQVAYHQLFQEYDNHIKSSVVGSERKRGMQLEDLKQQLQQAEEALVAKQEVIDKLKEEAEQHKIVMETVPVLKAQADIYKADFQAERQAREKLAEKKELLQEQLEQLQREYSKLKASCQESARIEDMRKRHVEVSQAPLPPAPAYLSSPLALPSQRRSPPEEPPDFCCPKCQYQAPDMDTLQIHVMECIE

B1: IKK1 (protein)
chain: MERPPGLRPGAGGPWEMRERLGTGGFGNVCLYQHRELDLKIAIKSCRLELSTKNRERWCHEIQIMKKLNHANVVKACDVPEELNILIHDVPLLAMEYCSGGDLRKLLNKPENCCGLKESQILSLLSDIGSGIRYLHENKIIHRDLKPENIVLQDVGGKIIHKIIDLGYAKDVDQGSLCTSFVGTLQYLAPELFENKPYTATVDYWSFGTMVFECIAGYRPFLHHLQPFTWHEKIKKKDPKCIFACEEMSGEVRFSSHLPQPNSLCSLVVEPMENWLQLMLNWDPQQRGGPVDLTLKQPRCFVLMDHILNLKIVHILNMTSAKIISFLLPPDESLHSLQSRIERETGINTGSQELLSETGISLDPRKPASQCVLDGVRGCDSYMVYLFDKSKTVYEGPFASRSLSDCVNYIVQDSKIQLPIIQLRKVWAEAVHYVSGLKEDYSRLFQGQRAAMLSLLRYNANLTKMKNTLISASQQLKAKLEFFHKSIQLDLERYSEQMTYGISSEKMLKAWKEMEEKAIHYAEVGVIGYLEDQIMSLHAEIMELQKSPYGRRQGDLMESLEQRAIDLYKQLKHRPSDHSYSDSTEMVKIIVHTVQSQDRVLKELFGHLSKLLGCKQKIIDLLPKVEVALSNIKEADNTVMFMQGKRQKEIWHLLKIACTQSSARSLVGSSLEGAVTPQTSAWLPPTSAEHDHSLSCVVTPQDGETSAQMIEENLNCLGHLSTIIHEANEEQGNSMMNLDWSWLTE
For B1, the “in vitro phosphorylation of the immunoprecipitated complex” value is reported as “RAP-2 becomes phosphorylated”.

B2: RIP (receptor interacting protein) (protein)
chain: MQPDMSLNVIKMKSSDFLESAELDSGGFGKVSLCFHRTQGLMIMKTVYKGPNCIEHNEALLEEAKMMNRLRHSRVVKLLGVIIEEGKYSLVMEYMEKGNLMHVLKAEMSTPLSVKGRIILEIIEGMCYLHGKGVIHKDLKPENILVDNDFHIKIADLGLASFKMWSKLNNEEHNELREVDGTAKKNGGTLYYMAPEHLNDVNAKPTEKSDVYSFAVVLWAIFANKEPYENAICEQQLIMCIKSGNRPDVDDITEYCPREIISLMKLCWEANPEARPTFPGIEEKFRPFYLSQLEESVEEDVKSLKKEYSNENAVVKRMQSLQLDCVAVPSSRSNSATEQPGSLHSSQGLGMGPVEESWFAPSLEHPQEENEPSLQSKLQDEANYHLYGSRMDRQTKQQPRQNVAYNREEERRRRVSHDPFAQQRPYENFQNTEGKGTAYSSAASHGNAVHQPSGLTSQPQVLYQNNGLYSSHGFGTRPLDPGTAGPRVWYRPIPSHMPSLHNIPVPETNYLGNTPTMPFSSLPPTDESIKYTIYNSTGIQIGAYNYMEIGGTSSSLLDSTNTNFKEEPAAKYQAIFDNTTSLTDKHLDPIRENLGKHWKNCARKLGFTQSQIDEIDHDYERDGLKEKVYQMLQKWVMREGIKGATVGKLAQALHQCSRIDLLSSLIYVSQN
For B2, the “in vitro immunocomplex kinase assay” value is listed as “over-expressed RIP did not phosphorylate RAP-2”.

(Values after patent publication US20040219615.)
